Measured values as given in PMC9276808, “Structural identification of riluzole-binding site on human TRPC5” (Cell Discovery, 2022).

Target: the molecule itself
Experiment: cryo-EM structure; purified hTRPC5(1-764) supplemented with riluzole; single particle analysis, global resolution 2.4 Å

B1: truncated functional human TRPC5 (hTRPC5_(1–764)) (domain or fragment, UniProt Q9UL62 1-764, looked up)
chain: MAQLYYKKVNYSPYRDRIPLQIVRAETELSAEEKAFLNAVEKGDYATVKQALQEAEIYYNVNINCMDPLGRSALLIAIENENLEIMELLLNHSVYVGDALLYAIRKEVVGAVELLLSYRRPSGEKQVPTLMMDTQFSEFTPDITPIMLAAHTNNYEIIKLLVQKRVTIPRPHQIRCNCVECVSSSEVDSLRHSRSRLNIYKALASPSLIALSSEDPILTAFRLGWELKELSKVENEFKAEYEELSQQCKLFAKDLLDQARSSRELEIILNHRDDHSEELDPQKYHDLAKLKVAIKYHQKEFVAQPNCQQLLATLWYDGFPGWRRKHWVVKLLTCMTIGFLFPMLSIAYLISPRSNLGLFIKKPFIKFICHTASYLTFLFMLLLASQHIVRTDLHVQGPPPTVVEWMILPWVLGFIWGEIKEMWDGGFTEYIHDWWNLMDFAMNSLYLATISLKIVAYVKYNGSRPREEWEMWHPTLIAEALFAISNILSSLRLISLFTANSHLGPLQISLGRMLLDILKFLFIYCLVLLAFANGLNQLYFYYETRAIDEPNNCKGIRCEKQNNAFSTLFETLQSLFWSVFGLLNLYVTNVKARHEFTEFVGATMFGTYNVISLVVLLNMLIAMMNNSYQLIADHADIEWKFARTKLWMSYFDEGGTLPPPFNIIPSPKSFLYLGNWFNNTFCPKRDPDGRRRRRNLRSFTERNADSLIQNQHYQEVIRNLVKRYVAAMIRNSKTHEGLTEENFKELKQDISSFRYEVLDLLGNR
notes: The sample was supplemented with riluzole, and Ca2+, DAG and lipids are seen in the map; also called transient receptor potential canonical subfamily member 5; source: purified
stoichiometry N: 4
